{"source": "patent US20100137208A1", "about": "“INTRATUMORALLY ADMINISTERED LACTOFERRIN IN THE TREATMENT OF MALIGNANTNEOPLASMS AND OTHER HYPERPROLIFERATIVE DISEASES” (priority 2002, published 2010)", "molecules": {"B1": {"name": "rhLF: recombinant human lactoferrin, a single chain metal binding glycoprotein (protein, UniProt P02788 20-710, looked up)", "Lactotransferrin": "GRRRSVQWCAVSQPEATKCFQWQRNMRKVRGPPVSCIKRDSPIQCIQAIAENRADAVTLDGGFIYEAGLAPYKLRPVAAEVYGTERQPRTHYYAVAVVKKGGSFQLNELQGLKSCHTGLRRTAGWNVPIGTLRPFLNWTGPPEPIEAAVARFFSASCVPGADKGQFPNLCRLCAGTGENKCAFSSQEPYFSYSGAFKCLRDGAGDVAFIRESTVFEDLSDEAERDEYELLCPDNTRKPVDKFKDCHLARVPSHAVVARSVNGKEDAIWNLLRQAQEKFGKDKSPKFQLFGSPSGQKDLLFKDSAIGFSRVPPRIDSGLYLGSGYFTAIQNLRKSEEEVAARRARVVWCAVGEQELRKCNQWSGLSEGSVTCSSASTTEDCIALVLKGEADAMSLDGGYVYTAGKCGLVPVLAENYKSQQSSDPDPNCVDRPVEGYLAVAVVRRSDTSLTWNSVKGKKSCHTAVDRTAGWNIPMGLLFNQTGSCKFDEYFSQSCAPGSDPRSNLCALCIGDEQGENKCVPNSNERYYGYTGAFRCLAENAGDVAFVKDVTVLQNTDGNNNEAWAKDLKLADFALLCLDGKRKPVTEARSCHLAMAPNHAVVSRMDKVERLKQVLLHQQAKFGRNGSDCPDKFCLFQSETKNLLFNDNTECLARLHGKTTYEKYLGPQYVAGITNLKKCSTSPLLEACEFLRK"}}, "key": {"[1]": {"system": "murine squamous carcinoma cell line (SCCVII)", "assay": "SCCVII floor-of-mouth tumor growth, oral rhLF and/or cisplatin", "assay_type": "in vivo, C3H mice", "conditions": "rhLF 200 mg/Kg oral once daily days 5-12, no cisplatin", "description": "A murine squamous carcinoma cell line (SCCVII) was injected into the floor of the mouth through the neck skin of immunocompetent C3H mice (Day 0). […] Tumors were measured in three dimensions with calipers.\nTumor-bearing mice were randomized into a control group and seven groups receiving rhLF and/or cisplatin. RhLF (4 mg; 200 mg/Kg) was administered once daily by oral gavage for 8 days on days 5 through 12. Cisplatin was administered as a single dose of 5 mg/Kg given intraperitoneally either at the start of rhLF (day 5), in the middle (day 8) or at the end (day 12) of rhLF therapy. Animals were sacrificed on day 12 post-implantation and the residual tumor masses were measured and processed for later additional analyses.\nA murine squamous carcinoma cell line (SCCVII) was injected into the floor of the mouth through the neck skin of immunocompetent C3H mice (Day 0) as described in Example 6. On Day 5 days after initial implantation, tumors were measured for the baseline, then treated with either cisplatin (Day 8, i.p., 5 mg/kg) alone or cisplatin plus three doses of oral rhLF (daily by gavage for 7-8 days on days 5 through 11/12). Animals were sacrificed on Day 11/12 and tumors measured."}, "metastatic cancer": {"system": "metastatic cancer", "assay": "Oral rhLF in human patients with metastatic cancer, tumor size by CT", "assay_type": "in vivo", "description": "Recombinant human lactoferrin was orally administered to human patients with a range of metastatic cancer types that had failed standard chemotherapy in two different studies conducted in multiple centers in four countries (Argentina, Brazil, Chile, U.S.) RhLF was administered at doses of 1.5 to 9 grams daily in two divided doses in cycles of 14 each with a 14 day gap.\nTumor size progression was monitored through CT scans and tumor markers where available. CT scans were performed at baseline and after each 8-week period once treatment was initiated, and also compared with a pre-baseline scan conducted prior to enrollment in the study. Tumor markers are measured every 4 weeks. Blood samples were collected to measure subclasses of circulating lymphocytes and NK cell activity. Plasma, serum and blood cell extract samples were collected to measure circulating IL-18, IL-1, IL-2, and IL-4, IL-5, IL-10, IL-12 and IFN-γ."}}, "data": [{"molecule": "B1", "values": [{"measurement": "TGI (%) Relative to Placebo", "setting": "[1]", "value": 33, "unit": "%"}, {"measurement": "Post Treatment 1 % Growth of tumor", "setting": "metastatic cancer; Patient # 007, Lung, 7.5 weeks, pretreatment 160% (5.5 weeks)", "value": 13, "unit": "%"}, {"measurement": "Post Treatment 2 % Growth of tumor", "setting": "metastatic cancer; Patient # 007, Lung, 8.5 weeks, pretreatment 160% (5.5 weeks)", "value": 12, "unit": "%"}, {"measurement": "Post Treatment 2 % Growth of tumor", "setting": "metastatic cancer; Patient # 102, Ovarian, 8.5 weeks, pretreatment 30% (21 weeks)", "value": "−7", "unit": "%"}, {"measurement": "Post Treatment 1 % Growth of tumor", "setting": "metastatic cancer; Patient # 102, Ovarian, 10.5 weeks, pretreatment 30% (21 weeks)", "value": "−5", "unit": "%"}, {"measurement": "Post Treatment 2 % Growth of tumor", "setting": "metastatic cancer; Patient # 104, Gastric, 7 weeks, pretreatment 25% (5.5 weeks)", "value": "−5", "unit": "%"}, {"measurement": "Post Treatment 1 % Growth of tumor", "setting": "metastatic cancer; Patient # 104, Gastric, 10 weeks, pretreatment 25% (5.5 weeks)", "value": 10, "unit": "%"}, {"measurement": "Post Treatment 1 % Growth of tumor", "setting": "metastatic cancer; Patient # 106, Melanoma, 11 weeks, pretreatment 24% (19 weeks)", "value": "−18", "unit": "%"}, {"measurement": "Post Treatment 2 % Growth of tumor", "setting": "metastatic cancer; Patient # 204, Breast, 6.5 weeks, pretreatment 40% (8 weeks)", "value": 0, "unit": "%"}, {"measurement": "Post Treatment 1 % Growth of tumor", "setting": "metastatic cancer; Patient # 204, Breast, 10 weeks, pretreatment 40% (8 weeks)", "value": 0, "unit": "%"}, {"measurement": "patients with stable disease by the RECIST criteria", "setting": "metastatic cancer; oral 1.5 to 9 grams daily, nine of nineteen evaluable patients, first post-treatment scan", "value": 47, "unit": "%"}]}]}
